Molecular target: T1, Chemokine beta-4 (CK-β4) (human, UniProt P78556 27-96, 125I label in the CCR6 membrane binding assay (Example 5))
T1 construct: also called CCL20; MIP-3α
Assay: inhibition of 125I-CK-β4 binding to CCR6 membranes by IgG1, Expt 1
Description: (§1) The ability of anti-CK-β4 antibodies of the invention to inhibit the binding of CK-β4 to CCR6 may be tested in the following assay. This assay is performed in 96-well plates and each sample is tested in triplicate. A 1:3 serial dilution of anti-CK-β4 antibody is made starting with 200 nM solution of anti-CK-β4 antibody in binding buffer (50 mM HEPES, pH7.0, 5 mM MgCl₂, 1 mM CaCl₂, 0.5% protease free BSA, 0.033% CHAPS, 0.05% Tween 20, 0.05% sodium azide). To fifty microliters of each dilution of antibody are added 25 microliters of CCR6 membranes (40 micrograms/ml in binding buffer; available from Upstate Biotechnology, Charlottesville, Va. Catalog number 50-139M.) Lastly 25 microliters of ¹²⁵I-CK-β4 (0.8 nM in binding buffer) are added to the wells containing the mixture of antibody and membranes, making for a 100 microliter reaction volume. Total binding is measured using 50 microliters of binding buffer in lieu of 50 microliters of antibody dilution.
(§2) The reaction is incubated for 3 hours at room temperature. The plates are harvested in a Tomtec Cell Harvester. The reaction is washed through a filtermat B (Perkin Elmer Life Sciences, Inc. Boston, Mass. product Number 1450-521) presoaked in 0.3% polyethylamine using an ice cold wash buffer (25 mM Hepes, 5 mM MgCl₂, 1 mM CaCl₂, 0.5M NaCl, and 0.05% Tween 20). The filter is then dried and radioactivity bound to the filter is measured using a Wallac MicroBeta Trilux (Perkin Elmer Life Sciences, Inc.).

T1 sequence (P78556 27-96 limits assumed): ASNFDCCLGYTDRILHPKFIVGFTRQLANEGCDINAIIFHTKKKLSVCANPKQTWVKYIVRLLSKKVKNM

Row | EC50 | Binder
1 | 0.3 nM | IgG1 antibody comprising the VH and VL domains of scFv F003A09 (antibody, V domains shown, Whole IgG1) VH: QVQLVQSGAEVKKAGSSVKVSCKASGDTFSNFAISWVRQAPGHGLEWVGGIIPVFNTADYAQNFTDRVTISADKATKTVYMELRSLRSDDTAVYFCARTKIELDNDAFDIWGQGTLVTVSS VL: not shown
2 | 4.1 nM | IgG1 antibody comprising the VH and VL domains of scFv F002G03 (antibody, V domains shown, Whole IgG1) VH: QVQLVQSGAEVKKPGSSVKVSCKASGGTFNRYAISWVRQAPGQGLEWMGGIIPMFATPIYSQKFQDRVTITADESTSTAYMELSSLRSEDTAVYYCARDRTDYYDTDGYQSPDSWGKGTLVTVSS VL: DIQMTQSPSTLSASIGDRVTITCRASQGINNYLAWYQQKPGRAPKLLIYAASSLQSGVPSRFSGSGSGTDFTLTISSLQPEDFATYYCLQDSDYPLTFGGGTKLEIKR
3 | 0.2 nM | IgG1 antibody comprising the VH and VL domains of scFv F003F01 (antibody, V domains shown, IgG1; The printed VL start (142) looks late against the printed VL CDR1 (159-171)) VH: EVQLVQSGAEVRKPASSVKVSCKTSGGSFNDYSFNWVRQAPGQGLEWMGSIIPVFDMADYGQNFQGRLTITADESTTTAYMELSDLTPMDTAIYYCARVAMVGATHFDIWGQGTLVTVSS VL: QSVLTQPPSASGTPGQRVTISCSGGSSNIGSNPVNWYQQVPGTAPKLLIYLSDQRPAGVPDRFSGSKSGTSASLAISGLQSEDEADYYCSTWDDSLNDPVVFGGGTKVTVLG

Molecular target: T1, Chemokine beta-4 (CK-β4)
Assay: inhibition of 125I-CK-β4 binding to CCR6 membranes by IgG1, Expt 2
Description: as §1, §2

Row | EC50 | Binder
4 | 2.4 nM | IgG1 antibody comprising the VH and VL domains of scFv F003F09 (antibody, V domains shown, Whole IgG1) VH: EVQLVQSGAEVRKPGSSVKVSCKASGDTFNNFAISWVRQAPGHGLEWVGGIIPVFNTADYAQNFTGRVTISADKATKTVYMELRSLRYDDTAVYFCARTKIELDNDAFDIWGRGTTVTVSS VL: LPVLTQPPSASGTPGQRVTISCSGSTSNIGSNAVVWYQQLPGAAPKLLIYSNDQRPSGVPDRFSGSRSGTSASLAISGLQSEDEADYYCAAWDDSRDGPWVFGGGTKVTVLG
5 | 0.49 nM | IgG1 antibody comprising the VH and VL domains of scFv F076F10 (antibody, V domains shown, Whole IgG1; also called F0076F10) VH: EVQLVQSGAEVKKPGSSVKVFCKTSGGTFSSYAFGWVRQRPGQGLEWMGGIIPNFDAANYAQKFQDTVAFTADTSTNTLYLELSSLTSDDTAVYYCAREVGVHASGLGAFDIWGRGTLVTVSS VL: QSVLTQPPSVSGAPRQRVTISCSGSSSNIGDNVVNWYQQLPGKAPKLLIYYDDLLPSGVSDRFSGSKSGTSASLAISGLQSEDEADYFCAAWDDSLDAYVFGTRTKVTVLG
6 | 0.09 nM | IgG1 antibody comprising the VH and VL domains of scFv F081C09 (antibody, V domains shown, Whole IgG1; also called F0081C09) VH: QVQLVQSGAEVKKPGSSVRVSCKASGGSFSDYAIHWVRQAPGQGLEWMGGIIPIFGTANYAQKFQGRVTITADESTSTAYMELSSLRSEDTAVYYCAREAQYDDAFDIWGQRTMVTVSS VL: QSVLTQPPSVSAAPGQKVTISCSGSTSNIGNNYVSWYQQHPGKAPKLMIYDVSKRPSGVPDRFSGSKSGNSASLDISGLQSEDEADYYCAAWDDSLSEFLFGTGTKLTVLG

Molecular target: T1, Chemokine beta-4 (CK-β4)
Assay: inhibition of 125I-CK-β4 binding to CCR6 membranes by IgG1, Expt 3
Description: as §1, §2

Row | EC50 | Binder
7 | 1.8 nM | IgG1 antibody comprising the VH and VL domains of scFv F076C06 (antibody, V domains shown, IgG1) VH: QVQLVQSGPEVKKPGSSVKVSCRASGGTFSTYAFSWVRQAPGQGLEWMGGIIPVFETPIYAQKLQGRLTITADTSTDTAYMELSNLRSGDTAVYYCAREWGDYYSSVSSGALHYWGRGTLVTVSS VL: QAVLTQPSSASGTPGQRVTISCSGSSSNIGNNAVNWYQQLPGTAPKLLIYNNNQWPSGVPDRFSGSKSGTSASLAVSGLQSEDEADYYCAAWDDSLNGYVFGTGTQLTVLS
8 | 1.7 nM | IgG1 antibody comprising the VH and VL domains of scFv F076G06 (antibody, V domains shown, IgG1) VH: QMQLVQSGAEVRKPGSSVKVSCKASGDTFNNFAISWVRQAPGHGLEWVGGIIPVFNTADYAQNFTGRVTISADKATKTVYMELRSLRYDDTAVYFCARTKIELDNDAFDIWGQGTMVTVSS VL: not shown
9 | 0.46 nM | IgG1 antibody comprising the VH and VL domains of scFv F003A09 (antibody, V domains shown, Whole IgG1) VH: QVQLVQSGAEVKKAGSSVKVSCKASGDTFSNFAISWVRQAPGHGLEWVGGIIPVFNTADYAQNFTDRVTISADKATKTVYMELRSLRSDDTAVYFCARTKIELDNDAFDIWGQGTLVTVSS VL: not shown
10 | 2.2 nM | IgG1 antibody comprising the VH and VL domains of scFv F002C08 (antibody, V domains shown, IgG1) VH: EVQLVESGAEVKKPGSSVKVSCKASGGTFSSYAISWVRQAPGQGLEWMGGIIPIFGTANYAQKFQGRVTITADESTSTAYMELSSLGSEDTAVYYCARESLTGDSELDLWGKGTLVTVSS VL: QSVLTQPPSVSAAPGQKVTISCSGSTSNIGNNYVSWYQQHPGKAPKLMIYDVSKRPSGVPDRFSGSKSGNSASLDISGLQSEDEADYYCAAWDDSLSEFLFGTGTKLTVLG
11 | 4.5 nM | IgG1 antibody comprising the VH and VL domains of scFv F002D02 (antibody, V domains shown, IgG1) VH: EVQLVQSGAEVKKPGSSVKVSCKASGGTFSSYAISWVRQAPGQGLEWMGGIIPIFGTANYAQKFQGRVTITADESTSTAYMELSSLRSEDTAVYYCAREDIVGAVDGFDIWGRGTLVTVSS VL: QSVLTQPPSVSAAPGQKVTISCSGSTSNIGNNYVSWYQQHPGKAPKLMIYDVSKRPSGVPDRFSGSKSGNSASLDISGLQSEDEADYYCAAWDDSLSEFLFGTGTKLTVLG
12 | 0.13 nM | IgG1 antibody comprising the VH and VL domains of scFv F003F01 (antibody, V domains shown, IgG1; The printed VL start (142) looks late against the printed VL CDR1 (159-171)) VH: EVQLVQSGAEVRKPASSVKVSCKTSGGSFNDYSFNWVRQAPGQGLEWMGSIIPVFDMADYGQNFQGRLTITADESTTTAYMELSDLTPMDTAIYYCARVAMVGATHFDIWGQGTLVTVSS VL: QSVLTQPPSASGTPGQRVTISCSGGSSNIGSNPVNWYQQVPGTAPKLLIYLSDQRPAGVPDRFSGSKSGTSASLAISGLQSEDEADYYCSTWDDSLNDPVVFGGGTKVTVLG
